# Like-named read-outs stand apart in the source and are kept apart here.
# T1: gelatinase A (MMP-2) (Homo sapiens, UniProt P08253)
# T1 sequence (P08253 110-660): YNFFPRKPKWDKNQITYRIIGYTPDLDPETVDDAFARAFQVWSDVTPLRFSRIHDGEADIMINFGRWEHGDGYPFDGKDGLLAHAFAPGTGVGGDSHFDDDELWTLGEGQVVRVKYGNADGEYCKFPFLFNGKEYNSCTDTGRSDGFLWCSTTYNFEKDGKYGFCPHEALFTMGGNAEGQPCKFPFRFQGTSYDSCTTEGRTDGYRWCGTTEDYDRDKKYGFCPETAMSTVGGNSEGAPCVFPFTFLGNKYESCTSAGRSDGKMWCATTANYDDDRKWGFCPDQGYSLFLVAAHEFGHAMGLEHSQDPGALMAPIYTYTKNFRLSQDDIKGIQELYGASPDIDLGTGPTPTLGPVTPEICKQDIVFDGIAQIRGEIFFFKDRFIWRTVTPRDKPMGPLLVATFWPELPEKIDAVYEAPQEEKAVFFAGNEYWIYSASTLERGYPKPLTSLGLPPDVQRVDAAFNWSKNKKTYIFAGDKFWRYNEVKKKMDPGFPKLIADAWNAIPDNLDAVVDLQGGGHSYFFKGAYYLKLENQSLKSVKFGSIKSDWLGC
# T2: full-length collagenase 1 (MMP-1) (Homo sapiens, UniProt P03956)
# T2 construct: full-length collagenase 1 (MMP-1)
# T2 sequence (P03956 100-469): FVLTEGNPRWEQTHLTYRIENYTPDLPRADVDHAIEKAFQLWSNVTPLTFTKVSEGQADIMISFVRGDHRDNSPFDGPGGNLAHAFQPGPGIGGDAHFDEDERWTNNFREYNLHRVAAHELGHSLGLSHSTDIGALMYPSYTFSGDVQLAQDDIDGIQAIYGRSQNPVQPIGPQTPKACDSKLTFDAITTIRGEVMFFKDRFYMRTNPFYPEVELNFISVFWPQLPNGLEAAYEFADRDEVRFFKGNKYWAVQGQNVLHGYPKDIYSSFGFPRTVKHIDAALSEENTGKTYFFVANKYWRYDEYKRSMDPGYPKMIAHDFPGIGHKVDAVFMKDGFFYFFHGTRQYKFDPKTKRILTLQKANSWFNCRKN
# B1: (-2A)N-TIMP-3: N-TIMP-3 mutant with two alanine residues on the N-terminal side of Cysteine1 of the TIMP-3 sequence (protein)
# chain: AACTCSPSHPQDAFCNSDIVIRAKVVGKKLVKEGPFGTLVYTIKQMKMYRGFTKMPHVQYIHTEASESLCGLKLEVNKYQYLLTGRVYDGKMYTGLCNFVERWDQLTLSQRKGLNYRYHLGCN
# B2: -1A: N-TIMP-3 mutant with the addition of an N-terminal alanine extension (-1A) (protein)
# chain: ACTCSPSHPQDAFCNSDIVIRAKVVGKKLVKEGPFGTLVYTIKQMKMYRGFTKMPHVQYIHTEASESLCGLKLEVNKYQYLLTGRVYDGKMYTGLCNFVERWDQLTLSQRKGLNYRYHLGCN
# B3: N-TIMP-3: N-terminal inhibitory domain of TIMP-3 (residues 1 to 121), C-terminally His-tagged, wild-type (protein)
# chain: CTCSPSHPQDAFCNSDIVIRAKVVGKKLVKEGPFGTLVYTIKQMKMYRGFTKMPHVQYIHTEASESLCGLKLEVNKYQYLLTGRVYDGKMYTGLCNFVERWDQLTLSQRKGLNYRYHLGCN
# What was measured:
# Type in all cases: biochemical
# gelatinase A (MMP-2) = target: T1, gelatinase A (MMP-2); experiment: Enzyme inhibition kinetic study, MMP-2; conditions: for Ki: read-out: Ki(app) MMP-2
# Procedure: (§1) Enzyme inhibition kinetic studies—Inhibition kinetic studies for MMPs and TACE were carried out as described previously (19, 27) with modifications. Purified N-TIMP-3 and mutants were dialyzed against 20 mM Tris-HCl (pH 7.0), 50 mM NaCl containing 20% glycerol, centrifuged at 14,000 rpm for 10 min to remove any precipitate, and protein concentration was re-measured before conducting inhibition assays. Since NaCl inhibits the activity of the TACE ectodomain in vitro (28), we adjusted the final concentration of NaCl to 1 mM in all assays with TACE. Equal volumes (10% of total assay volume) of diluted solutions of N-TIMP-3 and mutants were added to TACE assays, resulting in a final pH of 8.8.
# (§2) (Eq. 1) Tight binding inhibition:
# (§3) where v is the experimentally determined reaction velocity, v0 is the uninhibited activity, E is enzyme concentration, I is inhibitor concentration, K is the apparent inhibition constant (Ki^(app)) and h is the Hill coefficient.
# (§4) Inhibitory properties of mutants with purified metalloproteinases—The inhibitory activities of wild-type N-TIMP-3 and the two mutants were determined with MMPs representing four different sub-groups: full-length collagenase 1 (MMP-1), gelatinase A (MMP-2), and the catalytic domains of stromelysin 1 (MMP-3(ΔC)) and membrane-type 1 MMP (MMP-14). As previously reported for the corresponding mutants of N-TIMP-1 and TIMP-2 (17, 18), both mutations in N-TIMP-3 reduced the inhibitory activity towards the four MMPs by 2 to 3 orders of magnitude (Table I). FIG. 2A highlights the difference in inhibition of MMP-14(CD) by wild-type and mutated N-TIMP-3.
# (§5) Ki(app) determinations for MMP-1, MMP-2 and MMP-3 were performed as set out in Example 1.
# [1] = target: soluble form of TACE (TACE R651) (Homo sapiens, UniProt P78536); experiment: Enzyme inhibition kinetic study, TACE
# Sequence of soluble form of TACE (TACE R651) (P78536 215-651): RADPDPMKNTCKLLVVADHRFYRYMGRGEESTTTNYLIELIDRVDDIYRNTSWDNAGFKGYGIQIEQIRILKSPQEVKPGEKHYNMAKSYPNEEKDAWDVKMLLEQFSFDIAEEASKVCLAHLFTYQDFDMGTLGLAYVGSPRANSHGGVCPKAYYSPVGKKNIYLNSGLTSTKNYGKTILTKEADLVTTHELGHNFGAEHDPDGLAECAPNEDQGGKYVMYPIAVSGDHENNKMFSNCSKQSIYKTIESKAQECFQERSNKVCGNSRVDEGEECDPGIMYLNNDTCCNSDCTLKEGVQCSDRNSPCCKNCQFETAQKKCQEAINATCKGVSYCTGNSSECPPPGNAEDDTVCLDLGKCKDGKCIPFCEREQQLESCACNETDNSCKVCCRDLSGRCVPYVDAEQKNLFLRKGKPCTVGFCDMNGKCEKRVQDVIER
# Procedure: FIG. 2. Inhibition of MMP and TACE by N-TIMP-3 and its mutants. A. Inhibition of MMP-14(CD) by wild-type and mutated N-TIMP-3. Open circles, wild-type N-TIMP-3; closed circles, T2G; and open squares, -1A. B. Comparison of the inhibition of TACE by wild-type N-TIMP-3, N-TIMP-1 and TAPI-2. The inhibitors were incubated with 0.5 nM TACE for 3 hr at room temperature, and the residual enzyme activity was measured with 10 μM Substrate III (R&D Systems). […] Open circles, N-TIMP-3; closed circles, TAPI-2; and open squares, N-TIMP-1. C. Inhibition of TACE (0.5 nM) by wild-type and mutated N-TIMP-3. Open circles, wild-type inhibitor; closed circles, T2G; and open squares, -1A.
# as §1, §3
# The inhibitory activities of the mutants were also compared with that of wild-type N-TIMP-3 against a soluble form of TACE in which the transmembrane and C-terminal cytoplasmic domains are deleted (TACE R651; (28)). […] The inhibition curve of TACE by wild-type N-TIMP-3 is sigmoid, in striking contrast with the inhibition by TAPI-2 and with the inhibition of MMPs by N-TIMP-3 and N-TIMP-1 (FIGS. 2A, 2B; (31)). Sigmoid inhibition curves were also obtained for TACE with the T2G and -1A mutants of N-TIMP-3 (FIG. 2C).
# [2] = target: T2, full-length collagenase 1 (MMP-1); experiment: Enzyme inhibition kinetic study, MMP-1
# Procedure: as §1, §2, §3, §4, §5
# [3] = target: T3, catalytic domain of stromelysin 1 (MMP-3(ΔC)) (Homo sapiens, UniProt P08254); experiment: Enzyme inhibition kinetic study, MMP-3
# T3 construct: the catalytic domains of stromelysin 1 (MMP-3(ΔC)) and membrane-type 1 MMP (MMP-14)
# T3 sequence (P08254 100-272 limits assumed, stated change not applied): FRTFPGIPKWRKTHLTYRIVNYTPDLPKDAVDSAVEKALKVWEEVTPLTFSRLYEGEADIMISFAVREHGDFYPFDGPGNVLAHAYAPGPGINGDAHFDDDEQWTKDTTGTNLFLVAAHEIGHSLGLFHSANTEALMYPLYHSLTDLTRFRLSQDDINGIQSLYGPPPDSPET
# Procedure: as §1, §2, §3, §4, §5
# [4] = Table II, 0.5 nM TACE, pH 9.0, 1 mM NaCl, fit with equation 3
# [5] = Table II, 0.5 nM TACE, pH 9.0, 1 mM NaCl, fit with equation 3, read-out: Ki(app) TACE
# [6] = Table 3, read-out: Ki(app) MMP-1
# [7] = higher pH and low ionic strength (TACE conditions), read-out: Ki MMP-1 under the conditions used for TACE activity measurements
# [8] = Table 3, read-out: Ki(app) MMP-3
Molecule,Inhibition of MMP-2 (gelatinase A (MMP-2); 100 nM),Inhibition of TACE activity ([1]; 100 nM),Inhibition of MMP-1 ([2]; 100 nM),Inhibition of MMP-3 ([3]; 100 nM),Ki (gelatinase A (MMP-2); Table 3) [nM],"Ki (gelatinase A (MMP-2); Table I, enzyme 1 nM, pH 7.5) [nM]","h (Hill coefficient) for TACE inhibition [1, 4]","Ki [1, 5] [nM]","Ki [2, 6] [nM]","Ki ([2]; Table I, enzyme 5 nM, pH 7.5, read-out: Ki(app) MMP-1) [nM]","Ki [2, 7] [nM]","Ki [3, 8] [nM]","Ki ([3]; Table I, enzyme 1 nM, pH 7.5, read-out: Ki(app) MMP-3(ΔC)) [nM]","Inhibition of TACE activity (in words) ([1]; FIG. 2B, 0.5 nM TACE, pH 9.0, 1 mM NaCl)","Ki ([1]; pH 7.5, sigmoid inhibition curves, read-out: Ki against TACE at pH 7.5) [nM]"
B1,no inhibition,80-90%,no inhibition,no inhibition,–,–,–,–,–,–,–,–,–,–,–
B2,–,–,–,–,> 1000,614 ± 32,1.9 ± 0.22,33.9 ± 2.8,> 500,~1300,412,> 1000,~3300,–,–
B3,–,–,–,–,5.1 ± 1,–,3.59 ± 0.16,13.7 ± 0.2,8.2 ± 2,–,1.6,1.8 ± 0.4,–,effectively inhibited,26 ± 3
